Data as given in article PMC4653306, “Metagenomics of an Alkaline Hot Spring in Galicia (Spain): Microbial Diversity Analysis and Screening for Novel Lipolytic Enzymes” (Frontiers in Microbiology, 2015).

Substrate: CCCCCCCCCCCC(=O)Oc1ccc([N+](=O)[O-])cc1
Experiment: spectrophotometric p-nitrophenol release (A400), initial rates, Michaelis-Menten fit
Format: biochemical, uncultured organism
Settings: extracellular medium of recombinant yeast, Tris/HCl pH 7.5, CaCl2, 40 °C, pNP12 0.002-2.5 mM
Excerpt: spectrophotometric p-nitrophenol release (A400), initial rates, Michaelis-Menten fit on LOB4Est

B1: LOB4Est (uncultured organism) (protein)
chain: SRPRTAVHDRVLELVQQQIAAGQQLGVQVCAYQNGEKIVDIVAGVMGPDDPRPVQPDTLFNSFSTTKGVAATALHILAEQGKLEYEQPVARYWPAFAANGKERVTVAQAMSHQAGLHAMPTPSTIETLCDWEGGLNWVASGVPAWEPGTATGYHAITYAWVVGGIVYGATGRHIKDVIREEIAIPLGVADELFVGIPEGVEDRLATLAVPAPGEGMALPIPPDHDFFKAMPPSLGGHVYNDMRVRRACLPSANGHFSARALAKMYAALAGGGVVDGVRLVSPERIALMQRILTADMDRVLMLPLRKGVGFMMGGPVNGVSGVFGPRETAFGHSGAGGSTAFCDPETGLAVAVTINQMQMTLQAEGPTYAICQLIREELGCA
notes: yeast alpha-factor secretion signal fusion (removed on secretion), N-terminal FLAG-tag kept; secreted by Saccharomyces cerevisiae BJ3505 (YEpFLAG-1), assayed as unpurified extracellular medium
Km: 298 µM
Vmax: 264 µM/min
